Assay [1] concerns the target fluorescein-labeled peptide corresponding to repeat 3 (PPP1R15A^420-466), wild type (human) (UniProt O75807). The experiment in a line: fluorescence polarisation; 5 µL 100 nM fluorescein-labeled peptide probe mixed with 5 µL of increasing concentrations of eIF2 trimer or eIF2α-NTD; 20 mM Tris pH 7.4, 0.1 M NaCl, 1 mM TCEP, 0.01% Triton X-100; one-site binding fit; three experiments.

Assay [2] addresses extended PPP1R15A^325-636, wild type (bacterially expressed) (human) (UniProt O75807).
Assay [3] deals with eIF2 trimer, endogenous (detected by its α subunit), P05198;P20042;P41091. The experiment in a line: GFP immunoprecipitation (co-IP) and immunoblot, quantified. The settings on record: HEK293T cells; 20% (v/v) of immunoprecipitation fractions analyzed; parent: est. 0.14; read off a plot. In general terms: Immunoblotting shows a protein as a band on a membrane.

Chain of fluorescein-labeled peptide corresponding to repeat 3 (PPP1R15A^420-466), wild type (human) (O75807 420-466): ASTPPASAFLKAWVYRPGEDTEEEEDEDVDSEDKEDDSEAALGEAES
Chain of full-length human PPP1R15A-GFP fusion protein, wild type (O75807 whole entry, stated change not applied, the tested form may be a part): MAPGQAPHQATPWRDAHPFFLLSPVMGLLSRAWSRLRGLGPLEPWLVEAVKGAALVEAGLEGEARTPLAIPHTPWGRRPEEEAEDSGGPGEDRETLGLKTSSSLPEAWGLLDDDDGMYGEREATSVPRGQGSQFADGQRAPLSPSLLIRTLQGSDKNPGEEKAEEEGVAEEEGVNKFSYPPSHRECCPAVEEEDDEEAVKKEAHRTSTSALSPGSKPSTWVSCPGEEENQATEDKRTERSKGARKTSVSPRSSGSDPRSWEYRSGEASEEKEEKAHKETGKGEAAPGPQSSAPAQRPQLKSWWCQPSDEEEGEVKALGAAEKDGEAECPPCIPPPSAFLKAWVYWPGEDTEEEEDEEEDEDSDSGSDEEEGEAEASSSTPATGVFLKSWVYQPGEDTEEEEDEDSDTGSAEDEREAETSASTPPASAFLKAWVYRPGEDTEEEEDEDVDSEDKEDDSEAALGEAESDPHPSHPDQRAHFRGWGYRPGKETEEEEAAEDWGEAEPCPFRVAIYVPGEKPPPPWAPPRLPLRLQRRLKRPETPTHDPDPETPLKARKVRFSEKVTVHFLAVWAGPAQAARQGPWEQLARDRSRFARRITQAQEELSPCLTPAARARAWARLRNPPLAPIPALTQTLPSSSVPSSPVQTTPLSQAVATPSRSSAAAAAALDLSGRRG
Chain of eIF2 trimer (recombinant, not phosphorylated) (P05198 whole entry): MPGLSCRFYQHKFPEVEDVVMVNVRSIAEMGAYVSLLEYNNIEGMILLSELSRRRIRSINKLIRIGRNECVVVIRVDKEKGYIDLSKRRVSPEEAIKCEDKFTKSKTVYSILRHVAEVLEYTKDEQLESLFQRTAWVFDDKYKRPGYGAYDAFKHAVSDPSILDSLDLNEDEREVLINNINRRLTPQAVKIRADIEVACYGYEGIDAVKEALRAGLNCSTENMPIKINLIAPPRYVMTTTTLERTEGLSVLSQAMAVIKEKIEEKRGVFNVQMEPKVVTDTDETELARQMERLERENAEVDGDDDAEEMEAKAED
Chain of eIF2 trimer (recombinant, not phosphorylated) (P20042 whole entry): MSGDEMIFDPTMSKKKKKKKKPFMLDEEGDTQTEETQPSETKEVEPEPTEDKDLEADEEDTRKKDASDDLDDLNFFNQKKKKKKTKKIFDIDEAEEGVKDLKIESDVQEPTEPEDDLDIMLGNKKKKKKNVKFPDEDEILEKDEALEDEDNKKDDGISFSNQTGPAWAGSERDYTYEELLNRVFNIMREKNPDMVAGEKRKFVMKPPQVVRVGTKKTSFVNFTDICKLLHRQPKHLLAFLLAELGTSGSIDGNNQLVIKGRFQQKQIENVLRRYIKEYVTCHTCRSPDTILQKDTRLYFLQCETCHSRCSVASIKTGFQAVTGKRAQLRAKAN
Chain of eIF2 trimer (recombinant, not phosphorylated) (P41091 whole entry): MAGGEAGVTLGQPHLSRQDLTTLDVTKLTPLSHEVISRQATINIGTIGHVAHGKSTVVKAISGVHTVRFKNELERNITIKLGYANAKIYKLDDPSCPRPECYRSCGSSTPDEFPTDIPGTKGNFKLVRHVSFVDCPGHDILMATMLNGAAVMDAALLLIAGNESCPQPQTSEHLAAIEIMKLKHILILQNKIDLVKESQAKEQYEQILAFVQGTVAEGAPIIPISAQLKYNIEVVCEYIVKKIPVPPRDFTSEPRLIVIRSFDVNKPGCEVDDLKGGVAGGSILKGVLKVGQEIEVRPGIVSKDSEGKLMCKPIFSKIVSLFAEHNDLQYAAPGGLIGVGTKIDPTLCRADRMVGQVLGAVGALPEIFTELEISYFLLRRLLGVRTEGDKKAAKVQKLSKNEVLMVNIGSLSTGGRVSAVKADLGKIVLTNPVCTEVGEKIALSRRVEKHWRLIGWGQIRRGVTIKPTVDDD
Chain of eIF2^P trimer (phosphorylated eIF2) (P05198 whole entry): as the sequence (P05198 whole entry) above
Chain of eIF2^P trimer (phosphorylated eIF2) (P20042 whole entry): as the sequence (P20042 whole entry) above
Chain of eIF2^P trimer (phosphorylated eIF2) (P41091 whole entry): as the sequence (P41091 whole entry) above
Chain of extended PPP1R15A^325-636, wild type (bacterially expressed) (human) (O75807 325-636): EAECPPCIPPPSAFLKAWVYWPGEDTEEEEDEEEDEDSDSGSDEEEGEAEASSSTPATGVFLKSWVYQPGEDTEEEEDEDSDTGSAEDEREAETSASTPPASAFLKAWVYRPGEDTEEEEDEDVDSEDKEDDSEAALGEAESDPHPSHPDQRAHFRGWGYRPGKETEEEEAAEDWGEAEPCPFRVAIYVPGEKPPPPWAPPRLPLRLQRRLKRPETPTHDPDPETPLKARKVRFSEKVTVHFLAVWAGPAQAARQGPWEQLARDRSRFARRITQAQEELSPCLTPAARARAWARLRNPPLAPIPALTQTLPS

In assay [1], “eIF2 trimer (recombinant, not phosphorylated) (from UniProt P05198 1-315; P20042 1-333; P41091 1-472) (complex)” had a K (1/2max) of 220 nM.

Turning to “eIF2^P trimer (phosphorylated eIF2) (from UniProt P05198 1-315; P20042 1-333; P41091 1-472) (complex)”, the dephosphorylation of the eIF2^P trimer in vitro (PhosTag SDS-PAGE, kcat/Km) by the extended PPP1R15A^325-636-PP1-G-actin holophosphatase against the core PPP1R15A^533-624-PP1-G-actin holophosphatase (fold (kcat/Km)) in assay [2] came out at 10.

With “full-length human PPP1R15A-GFP fusion protein, wild type (from UniProt O75807) F338A; W342A; F386A; W389A; F428A; W432A; F479A; W482A”, the other: eIF2α/PP1 signal ratio in assay [3] was 0.0084.

Source of the values: article PMC10998612.
